Consider nine molecules from patent US20110150903A1 (Sanofi, published 2011).

One may read the Kd as a measure of binding affinity in units of concentration. A word on the koff: it is the first-order rate constant of dissociation. For orientation: kon means the rate constant with which the complex forms.

Assay [1] has as its target T1, hFGFR4-Histag (human, UniProt P22455 22-365).
T1 construct: also called SABVA4614
Nature of the assay: SPR (BIAcore 3000). For orientation: Surface plasmon resonance follows binding to a sensor surface in real time, without labels.

Assay [2] deals with T2, mFGFR4-Histag (murine, UniProt Q03142 19-362).
T2 construct: also called murine protein mFGFR4; murine FGF-R4
Briefly: SPR (BIAcore 3000).

In assay [3] the target is T3, hFGFR4(D2,D3)-Histag (human, UniProt P22455 22-365).
T3 construct: also called extracellular domain of FGF-R4 deleted of its D1 domain
Briefly: ELISA, HEK293 supernatant IgG on coated antigen. A general note: An ELISA detects its analyte on a solid surface through an enzyme-linked reagent.
Description: (§1) The capture antigen was bound to Immulon-4 enzyme-linked plates (VWR Scientific Inc. Swedesboro, N.J.).

Assay [4] has as its target T1, hFGFR4-Histag. Nature of the assay: ELISA, HEK293 supernatant IgG on coated antigen.
Description: as §1
Assay [5] concerns the target T3, hFGFR4(D2,D3)-Histag. Briefly: phage Fab ELISA on coated antigen, anti-M13 detection.
Description: (§2) The specificity of each antibody is established by ELISA according to the following protocol: suspensions of phages displaying, at their surface, the antibodies in the Fab format are generated by infection of E. coli bacteria. The capture antigens were bound to Immulon-2 enzyme-linked dishes (VWR Scientific Inc. Swedesboro, N.J.).
Assay [6] deals with T4, hFGFR3-Fc (human, UniProt P22607 23-375).
T4 construct: extracellular domain; Bought from R&D Systems; not shown: Fc domain of human IgG1
T4 sequence (looked up): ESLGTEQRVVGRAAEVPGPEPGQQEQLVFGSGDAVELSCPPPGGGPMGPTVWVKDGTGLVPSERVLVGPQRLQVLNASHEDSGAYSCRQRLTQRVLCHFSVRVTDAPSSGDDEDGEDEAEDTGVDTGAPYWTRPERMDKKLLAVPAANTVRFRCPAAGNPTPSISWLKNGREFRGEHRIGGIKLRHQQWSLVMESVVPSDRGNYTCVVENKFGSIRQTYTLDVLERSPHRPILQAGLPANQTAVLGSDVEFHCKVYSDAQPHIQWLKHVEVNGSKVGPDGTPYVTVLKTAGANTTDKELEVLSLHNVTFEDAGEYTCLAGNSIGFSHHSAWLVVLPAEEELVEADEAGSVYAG
The description is as above.

Another assay concerns the target T5, hFGFR1-Fc (human).
T5 construct: Extracellular domain of human FGF-R1 IIIc fused C-terminally to the Fc domain of human IgG1
The assay is described as above.

The target in a further assay is T6, hFGFR2-Fc (human).
T6 construct: Extracellular domain of human FGF-R2 IIIc fused C-terminally to the Fc domain of human IgG1
The assay is described as above.

Assay [7] addresses T4, hFGFR3-Fc. Briefly: ELISA on plates coated with the 4 human FGF receptors, single condition, antibody concentration not given.
Assay [8] has as its target T7, human FGF-R4 recombinant extracellular domain protein, construct not named (human, UniProt P22455 22-369).
T7 construct: extracellular domain; also called the FGF-R4 protein; complete extracellular domain of human FGF-R4
Nature of the assay: SPR (BIAcore), antibody captured by anti-Fc antibody on the chip.

Assay [9] concerns the target T2, mFGFR4-Histag. Briefly: ELISA on coated FGF-R4 constructs, single condition, antibody concentration not given.

T2 sequence (Q03142 other isoform, or with tags, fused parts or gaps): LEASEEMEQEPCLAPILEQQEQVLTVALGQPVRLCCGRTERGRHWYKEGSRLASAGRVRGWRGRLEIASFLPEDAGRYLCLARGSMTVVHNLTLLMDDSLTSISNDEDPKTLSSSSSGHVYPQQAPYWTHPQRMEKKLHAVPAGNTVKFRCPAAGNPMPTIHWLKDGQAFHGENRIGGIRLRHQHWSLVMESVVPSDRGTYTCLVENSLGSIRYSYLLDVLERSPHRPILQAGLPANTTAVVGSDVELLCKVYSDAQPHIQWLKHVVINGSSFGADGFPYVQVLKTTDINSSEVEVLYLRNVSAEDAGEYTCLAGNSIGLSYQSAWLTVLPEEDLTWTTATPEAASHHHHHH
Description for hFGFR1-Fc: as §2
Description for hFGFR2-Fc: as §2

B1: anti-FGFR4 antibody clone 33 (human IgG1 format) (antibody, V domains shown)
VH: EVQLLESGGGLVQPGGSLRLSCAASGFTFSTYWMAWVRQAPGKGLEWVSVIGPSGGMTVYADSVKGRFTISRDNSKNTLYLQMNSLRAEDTAVYYCARINSGSSHFDYWGQGTLVTVSS
VL: QSVLTQPPSASGTPGQGVTISCSGSSSNIGSNSVNWYQQLPGAAPKLLIYSNNLRPSGVPARFSGSKSGTSASLAISGLRSEDEADYYCAAWDDGLDAYVVFGGGTKLTVLG
notes: As for clone 8: human IgG1 format from HEK293; also called antibody 33
B1: in the assay with hFGFR4-Histag [1], the Kd worked out at 0.771 nM, the koff was 0.000617 s⁻¹ and the association rate constant (kon) worked out at 805000 M⁻¹ s⁻¹. In the assay with mFGFR4-Histag [2], this molecule returned a Kd of 0.692 nM, a koff of 0.000704 s⁻¹ and a kon of 1.01e+06 M⁻¹ s⁻¹. Besides, the “OD signal at 450 nm” value in the assay with hFGFR4(D2,D3)-Histag [3] came out at 3.62 OD 450 nm. Also, in the assay with hFGFR4-Histag [4], the “OD signal at 450 nm” value was found to be 3.75 OD 450 nm.

B2: clone 33 in the Fab format displayed on phage (Fab, V domains shown)
VH: EVQLLESGGGLVQPGGSLRLSCAASGFTFSTYWMAWVRQAPGKGLEWVSVIGPSGGMTVYADSVKGRFTISRDNSKNTLYLQMNSLRAEDTAVYYCARINSGSSHFDYWGQGTLVTVSS
VL: QSVLTQPPSASGTPGQGVTISCSGSSSNIGSNSVNWYQQLPGAAPKLLIYSNNLRPSGVPARFSGSKSGTSASLAISGLRSEDEADYYCAAWDDGLDAYVVFGGGTKLTVLG
As for B2, the “ELISA signal (OD, 450 nm)” value with hFGFR4(D2,D3)-Histag [5] is 2.73 OD 450 nm; with hFGFR3-Fc [6], -0.01 OD 450 nm; with hFGFR1-Fc it was 0 OD 450 nm; with hFGFR2-Fc it was 0 OD 450 nm.

B3: anti-FGFR4 antibody 64-12 (antibody, mouse IgG1, V domains shown)
VH: DVQLVESGGGLVQPGGSRKLSCAASGFTFSNFGMHWVRQAPEKGLEWVAYISSGSSTIYYADTVKGRFTISRDNPKNTLFLQMTSLRSEDTAMYYCARYDYDDDYYAMEYWGQGTSVTVSS
VL: QAVVTQESALTTSPGETVTLTCRSSTGAVTTSNYANWVQEKPDHLFTGLIGGTNNRAPGVPARFSGSLIGDKAALTITGAQTEDEAIYFCALWYSNHWVFGGGTKLTVLG
notes: also called clone 64-12; control antibody 64-12
Regarding B3, in the assay with hFGFR3-Fc [7], the binding result is “binds”. In [8], the Kd came out at 57.5 nM, the koff stood at 0.000602 s⁻¹ and the on-rate (kon) is 10500 M⁻¹ s⁻¹. Also, in the assay with mFGFR4-Histag [9], the binding result is “binds”.

B4: anti-FGFR4 antibody clone 36 (human IgG1 format) (antibody, V domains shown)
VH: EVQLLESGGGLVQPGGSLRLSCAASGFTFSHYWMGWVRQAPGKGLEWVSVISPSGGLTIYADSVKGRFTISRDNSKNTLYLQMNSLRAEDTAVYYCARSSGWALDAFDIWGQGTMVTVSS
VL: QYELTQPPSASGTPGQRVTISCSGSSSNIGSNIVHWYQQLPGTAPKLLIYGNNQRPSGVPDRFSVSKSGSSASLAISGLQSEDEADYYCASWDDSLKAFYVFGTGTKVTVLG
notes: As for clone 8: human IgG1 format from HEK293; also called antibody 36
Consider B4, for which, in the assay with hFGFR4-Histag [1], the Kd is 2.62 nM, the off-rate (koff) is 0.000631 s⁻¹ and the kon amounted to 244000 M⁻¹ s⁻¹. In the assay with mFGFR4-Histag [2], this molecule returned a Kd of 2.28 nM, a koff of 0.000752 s⁻¹ and a kon of 330000 M⁻¹ s⁻¹. The “OD signal at 450 nm” value with hFGFR4(D2,D3)-Histag [3] was 3.62 OD 450 nm. The “OD signal at 450 nm” value in the assay with hFGFR4-Histag [4] worked out at 3.75 OD 450 nm.

B5: clone 36 in the Fab format displayed on phage (Fab, V domains shown)
VH: EVQLLESGGGLVQPGGSLRLSCAASGFTFSHYWMGWVRQAPGKGLEWVSVISPSGGLTIYADSVKGRFTISRDNSKNTLYLQMNSLRAEDTAVYYCARSSGWALDAFDIWGQGTMVTVSS
VL: QYELTQPPSASGTPGQRVTISCSGSSSNIGSNIVHWYQQLPGTAPKLLIYGNNQRPSGVPDRFSVSKSGSSASLAISGLQSEDEADYYCASWDDSLKAFYVFGTGTKVTVLG
B5: the “ELISA signal (OD, 450 nm)” value in the assay with hFGFR4(D2,D3)-Histag [5] was 1.87 OD 450 nm; with hFGFR3-Fc [6], -0.02 OD 450 nm; in the assay with hFGFR1-Fc, -0.01 OD 450 nm; with hFGFR2-Fc, -0.01 OD 450 nm.

B6: anti-FGFR4 antibody clone 8 (human IgG1 format) (antibody, V domains shown)
VH: EVQLLESGGGLVQPGGSLRLSCAASGFTFSPYWMGWVRQAPGKGLEWVSVIWPSGGTTDYADSVKGRFTISRDNSKNTLYLQMNSLRAEDTAVYYCARVHPAGHNDHWGQGTLVTVSS
VL: QSELTQPPSASGTPGQRVTISCSGGYSNMGSNYAHWYQQLPGTAPKLLIYNNNQRPSGVPDRFSGSKSGTSASLAISGLRSEDEADYYCAAWDDSLSGPVFGGGTKLTVLG
notes: also called antibody 8
In the case of B6, the Kd in the assay with hFGFR4-Histag [1] came out at 0.327 nM; with mFGFR4-Histag [2] it was 0.115 nM. Further, the results for the koff with hFGFR4-Histag [1] and in the assay with mFGFR4-Histag [2] were 0.000292 s⁻¹ and 0.000136 s⁻¹, respectively. The kon with hFGFR4-Histag [1] stood at 893000 M⁻¹ s⁻¹; with mFGFR4-Histag [2], 1.2e+06 M⁻¹ s⁻¹. Moreover, the “OD signal at 450 nm” value with hFGFR4(D2,D3)-Histag [3] worked out at 3.86 OD 450 nm; with hFGFR4-Histag [4] it was 3.9 OD 450 nm.

B7: clone 8 in the Fab format displayed on phage (Fab, V domains shown)
VH: EVQLLESGGGLVQPGGSLRLSCAASGFTFSPYWMGWVRQAPGKGLEWVSVIWPSGGTTDYADSVKGRFTISRDNSKNTLYLQMNSLRAEDTAVYYCARVHPAGHNDHWGQGTLVTVSS
VL: QSELTQPPSASGTPGQRVTISCSGGYSNMGSNYAHWYQQLPGTAPKLLIYNNNQRPSGVPDRFSGSKSGTSASLAISGLRSEDEADYYCAAWDDSLSGPVFGGGTKLTVLG
Turning to B7, the “ELISA signal (OD, 450 nm)” value with hFGFR4(D2,D3)-Histag [5] was found to be 2.55 OD 450 nm; in the assay with hFGFR3-Fc [6], 0 OD 450 nm; with hFGFR1-Fc it was 0.05 OD 450 nm; in the assay with hFGFR2-Fc, 0 OD 450 nm.

B8: anti-FGFR4 antibody clone 31 (human IgG1 format) (antibody, V domains shown)
VH: EVQLLESGGGLVQPGGSLRLSCAASGFTFSRYFMKWVRQAPGKGLEWVSWISPSGGLTEYADSVKGRFTISRDNSKNTLYLQMNSLRAEDTAVYYCARASYGAWLDYWGQGTLVTVSS
VL: DIQMTQSPSSLSLSPGERATLSCRASQSINRNLGWYQQKPGQAPRLLIYGASTRATGIPARFTGSGSGTEFSLTISSLQSEDYAIYYCQQYDNWPIIFGQGTRLEIKG
notes: As for clone 8: human IgG1 format from HEK293; also called antibody 31
Regarding B8, in the assay with hFGFR4-Histag [1], the Kd is 1.52 nM, the koff amounted to 0.00098 s⁻¹ and the kon turned out to be 648000 M⁻¹ s⁻¹. Also, in the assay with mFGFR4-Histag [2], the dissociation constant (Kd) stood at 1.97 nM, the koff amounted to 0.0018 s⁻¹ and the kon was determined as 914000 M⁻¹ s⁻¹. Further, the “OD signal at 450 nm” value in the assay with hFGFR4(D2,D3)-Histag [3] turned out to be 3.74 OD 450 nm. Also, in the assay with hFGFR4-Histag [4], the “OD signal at 450 nm” value came to 3.86 OD 450 nm.

B9: clone 31 in the Fab format displayed on phage (Fab, V domains shown)
VH: EVQLLESGGGLVQPGGSLRLSCAASGFTFSRYFMKWVRQAPGKGLEWVSWISPSGGLTEYADSVKGRFTISRDNSKNTLYLQMNSLRAEDTAVYYCARASYGAWLDYWGQGTLVTVSS
VL: DIQMTQSPSSLSLSPGERATLSCRASQSINRNLGWYQQKPGQAPRLLIYGASTRATGIPARFTGSGSGTEFSLTISSLQSEDYAIYYCQQYDNWPIIFGQGTRLEIKG
For the molecule B9, the “ELISA signal (OD, 450 nm)” value amounted to 2.52 OD 450 nm with hFGFR4(D2,D3)-Histag [5], 0.01 OD 450 nm with hFGFR3-Fc [6], 0 OD 450 nm with hFGFR1-Fc and 0 OD 450 nm with hFGFR2-Fc.
